Target: T1, CREB (Har-CREB) (Helicoverpa armigera, UniProt A0A3G1CVR7 1-265)
T1 sequence: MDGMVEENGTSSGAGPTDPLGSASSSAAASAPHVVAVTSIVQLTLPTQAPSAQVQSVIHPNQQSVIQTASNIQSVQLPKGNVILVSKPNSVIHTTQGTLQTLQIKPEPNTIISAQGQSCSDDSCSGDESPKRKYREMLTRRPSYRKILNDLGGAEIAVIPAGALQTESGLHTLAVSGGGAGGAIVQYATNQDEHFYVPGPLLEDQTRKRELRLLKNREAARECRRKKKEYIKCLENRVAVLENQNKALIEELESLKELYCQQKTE
Experiment: EMSA; shift competed by 100-fold unlabeled PS; EMSA (LightShift): 20 ul, 50 ng/ul poly(dI-dC), 2.5% glycerol, 5 mM MgCl2, 0.05% NP40, 20 fmol biotin probe, RT 20 min; pH and salt not stated. MPS (S22/S23) and NS competitors were tested only with brain nuclear extract without supershift, so not listed
Settings: protein: ivt; chain copies: 2; blunt

B1: PS (PRMT1 promoter-specific probe) (dsDNA)
DNA 1: CGTTTTTGATATGAGGAAAATGAGCTCTGCAA
DNA 2: TTGCAGAGCTCATTTTCCTCATATCAAAAACG
Does B1 bind?
Result: binds

From paper PMC9978625, “Activation of protein arginine methyltransferase 1 and subsequent extension of moth lifespan is effected by the ROS/JNK/CREB signaling axis”
